In patent US20250176833A1:

Legend:
[1] = target: Fc receptors on HL-60 cells; experiment: flow cytometry, titration of IRDye680RD-labeled protein on HL-60 cells, non-linear fit of normalized MFI
[2] = target: Fc receptors on Mv4-11 cells; experiment: flow cytometry, titration of IRDye680RD-labeled protein on Mv4-11 cells, non-linear fit of normalized MFI
[3] = target: Fc receptors on granulocytes of human peripheral blood; experiment: flow cytometry on human peripheral blood with immune panel, granulocyte gate (CD16 vs Fc-680)
[4] = target: Fc receptors on monocytes of human peripheral blood; experiment: flow cytometry on human peripheral blood with immune panel, monocyte gate (CD14 vs Fc-680)

| Substance | Kd [1] [nM] | Kd [2] [nM] | percent of cells bound [3] [%] | percent of cells bound [4] [%] |
| --- | --- | --- | --- | --- |
| control scFv-Fc, labeled with IRDye680RD (Fc fusion) | 2.1 | 1.5 | – | – |
| control IgG, labeled with IRDye680RD (antibody) | 5 | 1.7 | – | – |
| human IgG1 Fc domain (hinge, CH2 and CH3; expressed with IL2 signal sequence), labeled with IRDye680RD (from UniProt P0DOX5 218-449) | 3.6 | 0.4 | 33 | 25 |
